Publication PMC11180174 (Nature Communications, 2024)

B1: neutralizing antibody 7F3 (antibody, V domains shown)
VH: EVQLVESGGGLVKPGRSLRLSCTASGFTFGDYAMSWFRQAPGKGLEWVGFIRSKAYGGTTEYAASVKGRFTISRDDSKSIAYLQMNSLKTEDTAVYYCTRDRYARYDILTGLSPAGADYFYYAMDVWGQGTTVTVSS
VL: EIVLTQSPATLSLSPGERATLSCRASQSVSSYLAWYQQKPGQAPRLLIYDASNRATGIPARFSGSGSGTDFTLTISSLEPEDFAVYYCQQRSNWPQYTFGQGTKLEIK
B2: 7F3 neutralizing antibody (IgG) (antibody, V domains shown)
VH: B1 VH
VL: B1 VL
B3: LY-CoV1404 (also known as bebtelovimab) (antibody, V domains shown)
VH: QITLKESGPTLVKPTQTLTLTCTFSGFSLSISGVGVGWLRQPPGKALEWLALIYWDDDKRYSPSLKSRLTISKDTSKNQVVLKMTNIDPVDTATYYCAHHSISTIFDHWGQGTLVTVSS
VL: QSALTQPASVSGSPGQSITISCTATSSDVGDYNYVSWYQQHPGKAPKLMIFEVSDRPSGISNRFSGSKSGNTASLTISGLQAEDEADYYCSSYTTSSAVFGGGTKLTVL
notes: control antibody
B4: LY-CoV1404 (bebtelovimab) (antibody, V domains shown)
VH: B3 VH
VL: B3 VL

Legend:
Test in all cases: BLI
Conditions in all cases: both partners purified
[1] = molecular target: T1, SARS-CoV-2 Omicron BF.7 RBD, His-tagged (SARS-CoV-2 Omicron BF.7, R346T)
T1 construct: not shown: 8xHis, C-terminal, kept

[2] = molecular target: T2, SARS-CoV-2 Omicron XBB RBD, His-tagged (SARS-CoV-2 Omicron XBB, R346T | L368I | V445P | F486S | F490S)
T2 construct: not shown: 8xHis, C-terminal, kept

[3] = molecular target: T3, SARS-CoV-2 Omicron XBB.1.16 RBD, His-tagged (SARS-CoV-2 Omicron XBB.1.16, R346T | L368I | V445P | T478R | F486P | F490S)
T3 construct: not shown: 8xHis, C-terminal, kept

[4] = molecular target: T4, SARS-CoV-2 Delta RBD, His-tagged (SARS-CoV-2 Delta (B.1.617.2), strain)
T4 construct: not shown: 8xHis, C-terminal, kept

[5] = molecular target: T5, SARS-CoV-2 Delta spike RBD-His (SARS-CoV-2 Delta (B.1.617.2), strain)
T5 construct: not shown: His8, C-terminal, kept

[6] = molecular target: T6, SARS-CoV-2 Omicron BF.7 spike RBD-His (SARS-CoV-2 Omicron BF.7, strain)
T6 construct: not shown: His8, C-terminal, kept

[7] = molecular target: T7, SARS-CoV-2 Omicron XBB spike RBD-His (SARS-CoV-2 Omicron XBB, strain)
T7 construct: not shown: His8, C-terminal, kept

[8] = molecular target: T8, SARS-CoV-2 Omicron XBB.1.16 spike RBD-His (SARS-CoV-2 Omicron XBB.1.16, R346T | L368I | V445P | F486P | F490S | T478R)
T8 construct: not shown: His8, C-terminal, kept

[9] = molecular target: T9, SARS-CoV-2 Omicron BA.1 RBD, His-tagged (SARS-CoV-2 Omicron BA.1, strain)
T9 construct: not shown: 8xHis, C-terminal, kept

[10] = molecular target: T10, SARS-CoV-2 Omicron BA.5 RBD, His-tagged (SARS-CoV-2 Omicron BA.5, strain)
T10 construct: not shown: 8xHis, C-terminal, kept

[11] = molecular target: T11, SARS-CoV-2 Omicron BA.1 spike RBD-His (SARS-CoV-2 Omicron BA.1, strain)
T11 construct: not shown: His8, C-terminal, kept

[12] = molecular target: T12, SARS-CoV-2 Omicron BA.5 spike RBD-His (SARS-CoV-2 Omicron BA.5, strain)
T12 construct: not shown: His8, C-terminal, kept

Row | Binder | Kd [1] [nM] | koff [1] [s⁻¹] | kon [1] [M⁻¹ s⁻¹] | Kd [4] [nM] | koff [4] [s⁻¹] | kon [4] [M⁻¹ s⁻¹] | Kd [5] [nM] | koff [5] [s⁻¹] | kon [5] [M⁻¹ s⁻¹] | Kd [6] [nM] | koff [6] [s⁻¹] | kon [6] [M⁻¹ s⁻¹] | other results
1 | B1 | 1280 | 0.0412 | 32100 | 20.8 | 0.000914 | 44000 | – | – | – | – | – | – | Kd [2]: 19.9 nM; koff [2]: 0.00113 s⁻¹; kon [2]: 56600 M⁻¹ s⁻¹; Kd [3]: 28.6 nM; koff [3]: 0.0048 s⁻¹; kon [3]: 168000 M⁻¹ s⁻¹
2 | B2 | – | – | – | – | – | – | 20.8 | 0.000914 | 44000 | 1280 | 0.0412 | 32100 | Kd [7]: 19.9 nM; koff [7]: 0.00112 s⁻¹; kon [7]: 56600 M⁻¹ s⁻¹; Kd [8]: 28.6 nM; koff [8]: 0.0048 s⁻¹; kon [8]: 168000 M⁻¹ s⁻¹
3 | B3 | < 0.001 | < 1e-07 | 46800 | < 0.001 | < 1e-07 | 244000 | – | – | – | – | – | – | Kd [9]: < 0.001 nM; koff [9]: < 1e-07 s⁻¹; kon [9]: 32200 M⁻¹ s⁻¹; Kd [10]: < 0.001 nM; koff [10]: < 1e-07 s⁻¹; kon [10]: 40500 M⁻¹ s⁻¹
4 | B4 | – | – | – | – | – | – | < 0.001 | < 1e-07 | 244000 | < 0.001 | < 1e-07 | 46800 | Kd [11]: < 0.001 nM; koff [11]: < 1e-07 s⁻¹; kon [11]: 32200 M⁻¹ s⁻¹; Kd [12]: < 0.001 nM; koff [12]: < 1e-07 s⁻¹; kon [12]: 40400 M⁻¹ s⁻¹
